A short description of series [1]: Isoelectric focusing of CY5-labelled pI markers in IPG strips, fluorescence scan. The class given is physicochemical. To be noted: for pI (exp) pI/marker: marker reacted at C-terminal lysine with CY5, experimental pI. On the procedure:
The amino acid sequences of the isoelectric point markers were selected essentially as described in Shimura, K. et al, Electrophoresis, (2000), 21, 603-610. The markers contain a minimum of two […] groups with pK values in the vicinity of the pI value of the corresponding marker. The pH scale is a pH scale defined for isoelectric focussing in 8M urea and 20° C. as described in Bjellqvist, B. et al, Electrophoresis, (1993), 14, 1357-1365, Bjellqvist, B. et al, Electrophoresis, (1994), 15, 529-539.
3.2 Sample application was performed with polyacrylamide gel pieces, cast as 1 mm thick gel of the size 260×110 mm on a GelBond PAGE film. In addition to acrylamide (38.8 gram/litre) and bisacrylamide (1.2 gram/litre) the gel polymerising solution contained 15.0 mM Immobiline pK 3.6 and 5.9 mM Immobiline pK 9.3. The polymerisation initiators used were ammonium persulfate and tetramethyl ethylenediamine. The gel was extensively washed in water (10 wash cycles of 20 minutes using 200 ml water/wash). To the last wash was added 2% glycerol. The gel was then dried and cut to generate a number sample application gel pieces of the size 43×7 mm.
Four, 22 cm long IPG strips were re-swollen overnight in 250 μl 8 M urea solution containing 1% Pharmalyte pH 2.5-5 and a trace of bromophenol blue. In parallel, four sample application gel pieces were re-swollen in 315 μl sample solution containing 300 μg yeast protein in 8 M urea to which 0.3 μg of the pI marker had been added.
The four re-swollen IPG strips were positioned in a ceramic manifold in the IPGPHOR™ 3 with the GelBond film downwards. At the basic/cathodic ends of the IPG strips, paper electrode wicks (10×7×1 mm) to which 150 ul water had been added, were positioned on top of the IPG strips with an overlap of 2 mm to establish electric contact. At the anodic end, the wetted electrode wick was positioned 39 mm away from the acidic end of the IPG strip. The re-swollen acidic sample application gel was positioned with the gel side down as a bridge between the paper electrode wick and the IPG strip to give contact both with the paper wick and with the IPG strip through a 2 mm overlap region. The anodic and cathodic electrodes were finally positioned on the anodic and cathodic paper electrode wicks respectively and a light pressure was applied on the back of the sample application gels at the over lap regions with the paper electrode wicks and the IPG strips respectively.
3.3 Focusing was then performed at 20° C. with maximum current set to 50 uA/strip with the following voltage settings:
The focusing experiment was performed with current limitations from 1000V onwards; 2500 V was reached after 5 hours and the voltage only changed slowly to reach a final voltage of 2715 V after 52 hours 23 minutes and a total volthourproduct of 129 kilovolthours.
Upon completion, the gel strips were transferred to a TYPHOON™ 9400 imager and scanned in the fluorescence mode at 633 nm (FIG. 3). From the focusing positions the pI-value for the marker was determined to be 3.86.
Focusing was performed in IPG strips pH 3.4-4.9 containing a non-linear pH-gradient adjusted to give an even distribution of peptides in the focused strip. The experiment was run essentially as described in Example 3. For sample application, the same type of polyacrylamide gel applicator was used, this time re-swollen in an 8M urea solution containing 30 μg of the digested yeast proteins and 0.3 μg of each of the four pI-markers. Focusing was continued for 47 hours 45 minutes and the total volthourproduct was 207 kVh.

Series [2] is described as follows: Experimentally determined pI-values of tryptic peptides focused in IPG strips. It counts as physicochemical. The settings on record: tryptic yeast peptides focused in IPG strips 3.7-4.05. An excerpt: Both methods are based on the equilibria of amino acid residues participating in reactions with water and can be described with one pK-value for each type of residue, which is independent of the nature of neighbouring amino acids. The consequence of this assumption is that for large groups of tryptic peptides, the same pI-value will be predicted. […] The approaches described above will result in the same pI-value for all these peptides. The value predicted at the Expasy server is 4.53, which can be compared with the value resulting from the experimental distribution, i.e. 4.49±0.075.
It would be expected that the presence of two negatively charged amino acid residues at limited distances from each other along the amino acid chain should result in an increase of the pK-values involved and a concomitant increase of the pI-value, while two positively charged residues at limited distances from each other along the peptide chain could be expected to give reversed effect, i.e. a decrease in pK-values and a concomitant decrease of the pI-value. In reality, no such effects can be detected. […] In the peptides, C-terminal amino acids are either lysine or arginine. […] This is explained by the presence of two oppositely charged amino acid residues in the chain, thereby favouring configurations with a short distance between the two residues. As a consequence, pK-values are affected also when these residues are separated by up to 5 amino acid residues. On the other hand, the presence of two equally charged residues favours configurations with the longest possible distance between the charged groups and for neighbouring charged residues, the average distance becomes too long to generate a detectable effect on pK and pI values.
The C-terminal, which in tryptic digests is either lysine or arginine contains both a positively charged group and a negatively charged group, gives notable effects on resulting pI-values only when the neighbouring group is charged. At larger distances, for peptides having two internal glutamic acid residues (no glutamic acid in position 1-6), the C-terminal amino acid being either lysine or arginine, the effect on pI is negligible (Table 2).
3.1 Yeast proteins (Saccharomyces cerevisiae, type II (1 gram) were dissolved in a 10 ml solution containing 50 mM Tris-HCl pH 8.0, 6 M urea and 10 mM DDT. The solution was allowed to stand for 1 hour at 37° C. and then allowed to react with iodoacetamide (addition of 250 μl 0.8 M iodoacetamide solution) for 30 minutes at room temperature to […] the cysteine groups. The sample was then sonicated 5 times for 30 seconds followed by dilution of the sample in 50 mM Tris-HCl, 1 mM CaCl2 (1 ml sample to 9 ml Tris-Cl buffer solution). 2.5 ml of diluted sample was added to a container with 250 μg trypsin (4 containers for 10 ml diluted sample) and digestion was allowed to proceed for 2 hours at 37° C. The sample was then concentrated by evaporation to 2 ml. 1 ml of digested concentrated sample was then added to a NAP-10 column pre-equilibrated with 15 ml 8 M urea solution and the sample was eluted with 1.5 ml urea. After a protein determination the sample was aliquoted and frozen until used.
A total of 6612 tryptic yeast peptides have been identified after focusing in IPG strips 3.7-4.05. Sixteen of these peptides have a structure (Table 5) which should give them a pI in close agreement with the pI of the marker. The average value found for these peptides 3.80±0.03 is in reasonable agreement with the value found for the pI marker.

The values that follow come from patent US20100181197A1, “ISOELECTRIC POINT MARKERS” (GE HEALTHCARE BIO-SCIENCES AB, priority 2007, published 2010).

Ends that are not written are not given here.

As for “H2N-Gly-Gly-Glu-Gly-Gly-Glu-Gly-Lys(CY™5)-COOH (H-GGEGGEGK(Cy5)-OH) [xxiv]”, in series [1], the “pI (exp) pI/marker” value stood at 4.42. “DTDYVPIVVVGNK [tryptic yeast peptide identified after focusing in IPG strips 3.7-4.05]” yielded a pI-value in series [2] of 3.840.

Substance “DLDAVNGSNGSK [tryptic yeast peptide identified after focusing in IPG strips 3.7-4.05]” returned a pI-value in series [2] of 3.790. The same measure, in the same setting: with “DIDILVNNAGK [tryptic yeast peptide identified after focusing in IPG strips 3.7-4.05]” the figure was 3.828. Take “H2N-Glu-Gly-Glu-Gly-Lys(CY™5)-COOH (H-EGEGK(Cy5)-OH) [xxiii]”: the “pI (exp) pI/marker” value in series [1] was 4.28. In the case of “H2N-Gly-Asp-Gly-Gly-Asp-Gly-Gly-Lys(CY™5)-COOH [xviii]”, in series [1], the “pI (exp) pI/marker” value worked out at 4.02. On to “DIDNGYTLSLMYK [tryptic yeast peptide identified after focusing in IPG strips 3.7-4.05]”, for which the pI-value in series [2] was 3.800. On to “H2N-Gly-Glu-Glu-Gly-Gly-Lys(CY™5)-COOH [Compound xx]”, for which the “pI (exp) pI/marker” value in series [1] amounted to 4.44. “DQDSAVVSSNIK [tryptic yeast peptide identified after focusing in IPG strips 3.7-4.05]” gave a pI-value in series [2] of 3.823. Same read-out and setting: with “DVDLVNAAR [tryptic yeast peptide identified after focusing in IPG strips 3.7-4.05]” the figure was 3.800; with “DCDSLSSLVTR [tryptic yeast peptide identified after focusing in IPG strips 3.7-4.05]”, 3.765; with “DLDLPTQQILVAR [tryptic yeast peptide identified after focusing in IPG strips 3.7-4.05]”, 3.830. “DLDAAQGTLK [tryptic yeast peptide identified after focusing in IPG strips 3.7-4.05]” had a pI-value in series [2] of 3.815. With “H2N-Asp-Gly-Asp-Gly-Lys(CY™5)-COOH (H-DGDGK(Cy5)-OH) [Compound xvii]”, the “pI-value for the marker from focusing positions” value in series [1] (linear IPG pH 3.70-4.05, 22 cm strip, 8 M urea, 20° C., 129 kVh, 0.3 μg/strip) amounted to 3.86. In addition, in series [1], the “pI (exp) pI/marker” value was 3.86.

Substance “DSDVTWLYGPIVR [tryptic yeast peptide identified after focusing in IPG strips 3.7-4.05]” registered a pI-value in series [2] of 3.800. Turning to “DGDYNLVGSK [tryptic yeast peptide identified after focusing in IPG strips 3.7-4.05]”, in series [2], the pI-value turned out to be 3.746. Turning to “DGDQVVFMVSQK [tryptic yeast peptide identified after focusing in IPG strips 3.7-4.05]”, in series [2], the pI-value is 3.760. Turning to “H2N-Gly-Glu-Gly-Gly-Glu-Gly-Glu-Lys(CY™5)-COOH (H-GEGGEGEK(Cy5)-OH) [xix]”, the “pI (exp) pI/marker” value in series [1] was 4.22. As for “H2N-Glu-Gly-Asp-Gly-Lys(CY™5)-COOH (H-EGDGK(Cy5)-OH) [Compound xxii]”, the “pI (exp) pI/marker” value in series [1] is reported as 4.18. Substance “DNDVQLAATK [tryptic yeast peptide identified after focusing in IPG strips 3.7-4.05]” returned a pI-value in series [2] of 3.800. Turning to “DADLLNSVVVQR [tryptic yeast peptide identified after focusing in IPG strips 3.7-4.05]”, the pI-value in series [2] is reported as 3.775. Take “H2N-Gly-Gly-Gly-Gly-Glu-Glu-Lys(CY™5)-COOH (H-GGGGEEK(Cy5)-OH) [Compound xxi]”: the “pI (exp) pI/marker” value in series [1] is 4.56. “DSDYIPVVVVGNK [tryptic yeast peptide identified after focusing in IPG strips 3.7-4.05]” registered a pI-value in series [2] of 3.825.

As to “DTDMVLIPAGVPR [tryptic yeast peptide identified after focusing in IPG strips 3.7-4.05]”, the pI-value in series [2] is 3.808.
